Data set [1] addresses T1, SHMT2 WT (UniProt P34897).
T1 sequence: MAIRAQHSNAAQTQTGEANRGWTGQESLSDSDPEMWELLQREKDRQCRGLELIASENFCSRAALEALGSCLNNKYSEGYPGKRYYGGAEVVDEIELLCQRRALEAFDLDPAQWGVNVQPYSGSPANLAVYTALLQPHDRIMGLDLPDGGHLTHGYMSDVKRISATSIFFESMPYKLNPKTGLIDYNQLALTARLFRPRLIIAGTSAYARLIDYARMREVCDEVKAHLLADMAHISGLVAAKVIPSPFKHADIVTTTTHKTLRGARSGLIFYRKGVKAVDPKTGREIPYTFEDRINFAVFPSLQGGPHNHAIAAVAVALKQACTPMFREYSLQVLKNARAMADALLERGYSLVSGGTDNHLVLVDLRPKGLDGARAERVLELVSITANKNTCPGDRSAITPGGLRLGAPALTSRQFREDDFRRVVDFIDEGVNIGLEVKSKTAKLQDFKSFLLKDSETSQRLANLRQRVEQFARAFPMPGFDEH
The experiment in a line: EMSA. Conditions: EMSA: 20 mM HEPES pH 7.4, 150 mM NaCl, 20 ug/ml BSA, 0.1 ug tRNA, RNase inhibitor, 8% glycerol, 25 C, 30 min; 4% native PAGE in 0.5x TBE. In general terms: In EMSA bound probe runs differently from free probe, usually more slowly.

For data set [2], the target named is SHMT2 K281S-R284S. As to the kind of experiment: SEC; Superdex 200 column (16/600), last step of the purification; 20 mM Hepes pH 7.2, 250 mM NaCl, 10% glycerol. In general terms: In gel filtration, larger molecules generally elute earlier.
Data set [3] deals with Serine hydroxymethyltransferase 2 (SHMT2) wild type. The data set is described as above.

What is called Kd is the equilibrium constant for the complex coming apart. In data set [1], “GGGAUAAAGAAAAAAGCGGUGAGUGGGCGAACUACAAUUCCCAAAAGGCCACAAAGGGGCCACCACUACGCAUGCGUAGAUCCCUCCCGUUAGCUUUGGCGCCUCAGCGAGCUCUUCUCGCGCAUGCGUUCUCCGAACGGUCUUCUUCCGACAGCUUGCUGCCCUAGACCAGAGUUGGUGGCUGGACCUCCUGCGACUUCCGAGUUGCG [UTR2 RNA]” yielded a Kd of 560 nM.
Usually stoichiometry N stands for the number of molecules, sites or subunits per partner or assembly. In data set [2], SHMT2 K281S-R284S (enzyme) came in with a stoichiometry N of 4.
In data set [3], “Serine hydroxymethyltransferase 2 (SHMT2) wild type (enzyme)” returned a stoichiometry N of 4.

Source of the values: PMC12328718.
